Measured values from the RNAGym collection of RNA variant scans (doi:10.1073/pnas.2313332121).
Variants at the floor of the assay were thinned out.

B1: TPR 5TU (parent)
chain: GGAUCUUCUCGAUCUAACAAAAAAGACAAAUCUGCCACAAAGCUUGAGAGCAUCUUCGGAUGCAGAGGCGGCAGCCUUCGGUGGCGCGAUAGCGCCAACGUUCUCAACUAUGACACGCAAAACGCGUGCUCCGUUGAAUGGAGUUUAUCAUG

Variants of: B1
Experiment: polymerase ribozyme fitness, log enrichment relative to wild type (log ratio); higher = more active; in vitro selection for triplet polymerase activity
Method in brief: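 One round of in vitro selection, in triplicate, was applied to PCR-built, transcribed mutant libraries of each subunit of a heterodimeric triplet polymerase ribozyme. The steps were annealing with a biotinylated primer, partner subunit and triplets, incubation frozen at −7 °C, gel excision of extended constructs, streptavidin-bead capture and RT-PCR. Fitness is the logarithm, base 2, of genotype enrichment over wild-type enrichment from inverse-variance-weighted replicate averages of Illumina-sequenced inputs and outputs, keeping genotypes with ≥10 input reads and ≥1 read per output.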

| Variant | polymerase ribozyme fitness (log ratio) |
| --- | --- |
| GGAUAUUCUCGAUCUAACAAAAAAGACAAAUCUGCCACAAAGCUUGAGAGCAUCUUCGGAUGCAGAGGCGGCAGCCUUCGGUGGCGCGAUAACGCCAACGUUCUCAACUAUGACACGCAAAACGCGUGCUCCGUUGAAUGGAGUUUAUCAUG [C5A G92A] | -1.42 |
| GGAUAUUCUCGAUCUAACAAAAAAGACAAAUCUGCCACAAAGCUUGAGAGCAUCUUCGGAUGCAGAGGCGGCAGCCUUCGGUGGCUCGAUAGCGCCAACGUUCUCAGCUAUGACACGCAAAACGCGUGCUCCGUUGAAUGGAGUUUAUCAUA [C5A G86U A107G G152A] | ≤ -4.2 |
| GGAUAUCCUCGAUCUAAGAAAAAAGACAAAUCUGCCACAAAGCUUGAGAGCAUCAUCAGAUGCAGAGGCGGCAGCCUUCGGUGGCGCGCUAGCGCCAACGUUCUCAACUAUGACACGCAAAACGCGUGCUCCGUUGAAUGGAGUUUAUCAUG [C5A U7C C18G U55A G58A A89C] | -1.54 |
| GGAUAUUCGCGAUCUAACAAAAAAGACAAAUCUGCCACAAAGCUUGAGAGCAUCUUCGGAUGCAGAGGCGGCAGCCUUCGGUGGCGCGAUAGGGCCAACGUUAUCAAGUAUGGCACGCAAAACGCGUGCUCCGUUGGAUGGAGUUUAUCAUG [C5A U9G C93G C103A C108G A113G A137G] | ≤ -4.2 |
| GGAUAUUCUCGAUCUAACAAAAAAGACAAAUCUGCCACAAAGCUUGAGAGCAUCUUCGGAUGCAGAGGCGGCAGCCUCCGGUGGCGCGUUAGCGUCAACGUUCUCAACUAUGACACGCAAAACGCGUGCUCCGUUGAAUGGAGUUUAUCAUG [C5A U78C A89U C95U] | -1.72 |
| GGAUAUUCUCGAUCUAACAAAAAAGACAAAUCUGCCACAAAGCUUGAGAACAUCUUCGGAUGCAGAGGCGGCAGCCUUCGGUGGCGCGAUAGCGCCAACGUUCUUAACUAUGACAAGCAAAACGCGUGCUCCGUUGAAUGGAGUUUAUCAUG [C5A G50A C105U C116A] | -1.3 |
| GGAUGUUCUCGAUCUAACAAAAAAGACAAAUCUGCCACAAAGCUUGAGAGCAUCUUCGGAUGCAGAGGCGGCAGCCUUCGGUGGCGCGAUAGCGCCAACGUUCUCAACUAUGACACGCAAAACGCGUGCUCCGUUGAAUGGAGUUUAUCAUG [C5G] | -0.157 |
| GGAUAUUCUCGAUCUAACAAAAAAGACAAAUCUGCCACAAAGCUUGAGAGCAUCUUCGGAUGCAGAGGCGGCAGCCUUCGUUGGGGCGAUAGCGCCAAUGUUCUCAACUAUGACACGCAAAACGCGUGCUCCGAUGAAUGGAGUUUAUCAUG [C5A G81U C85G C99U U134A] | -4.04 |
| GGAUAUUCUCGAACUAACAAAAAGGACAAAUCUGCCACAAAGCUUGAGAGCAUCUUCGGAUGCAGAGGCGGCAGCCUUCGGCGGCGCGAUAGCGCCAACCUUCUCAACUAUGACACGCAAAACGCGUGCUCCGUUGAAUGGAGUUUAUCAUG [C5A U13A A24G U82C G100C] | ≤ -4.2 |
| GGAUGUUCUCGGUCUAACAAAUAAGACAAAUCUGCCAAAAAGCGUGAGAGCAUCUUCGGAUGCAGAGGCGGCAGACUUUGGUGGCGCGAUAGAGCCAACGUUCUCAACUAUGACACGCAAAACGCGUGCUCCUUUGAAUGGAGUUUAUCAUG [C5G A12G A22U C38A U44G C75A C79U C93A G133U] | ≤ -4.2 |
| GGAUAUUCUCGAUCUAACAAAAAAGACAAAUCUGCCACAAAGCUUGAGAGCAUCUUCGGAUGCAGAGGCGGCAGCCUUCGGUGGCGCGAUAGCGCCAACGUUCUCAACUAUGACACGCAAAACGCGUGCUCCGUUGAAUGUAGUUUAUCAUG [C5A G141U] | 0.735 |
| GGAUAUUCUCGAUCUAACAAAAAAGACAAAUCUGCCACAAAGCUGGAGAGCAUCUUCGGAUGCAGAGGCGGCAGCCUUCGGUGGUGCGAUAGCGCCAACGUUCUCAACUAUGACUCGCAAAACGCGUGCUCCGUUGAAUGUAGUUUAUCAUG [C5A U45G C85U A115U G141U] | -3.86 |
| GGAUAUUCUCGAUCUAACAAAAAAGACAAAUCUGCCACAAAGCUUGAGAGCAUCUUCGGAUGCAGAGGCGGCAGCCUUCGGUGGCGCGAUAACGCCAACGUUCGCAACUAUGACACGCAUAAAGCGUGCGCCGUUGAAUGGAGUUUAUCAUG [C5A G92A U104G A120U C123A U130G] | ≤ -4.2 |
| GGAUAUUCUCGAUCUAACAAAAAAGACAAAUCUGCCACAAAGCUUGAGAGCAUCUUCGGAUGCAGAGGCGGCAGCCUUCGGUGGCCCGAUAUCGCCAACGUUCUCAACUAUGACACGCAAAACGCGUGCUCCGUUGAAUGGAGUUUAUCAUG [C5A G86C G92U] | -3.93 |
| GGAUAUUCUCGAUCCAACAAAAAAGACAAAUCUGCCACAAAGCUUGAGAGCAUCUACGGAUGCAGAGGCGGCAGCCUUCGGUGGCGCGAUAGCGCCAACGUUCUGACCUAUGACACUCAAAACGCGUGCUCCGUUGAACGGACUUUACCAUG [C5A U15C U56A C105G A107C G117U U139C G143C U148C] | ≤ -4.2 |
| GGAUAUUCUCGAUCUAACAAAAAAGACAAAUCUGCCACAAAGCAUGAGAGCAUCUUCGGAUGCAGAGGCGGCUGCCUUUGGUGGUGCGAUAGCGCCAACGUUCUCAACUAUGACACGCAAAACGCUUGCUCCGUUGAAUGGAGUUUAUCAUG [C5A U44A A73U C79U C85U G126U] | ≤ -4.2 |
| GGAUAUUCUCGAUCUAACAAAAAAGACAAAUCUGCCACAAAGCUUGAGAGCAUCUUCGGAUGCAGAGGCGGCAGCCUUCGGUGGCGCGAUAGCGCCAACGUUCUCAACUAUGACACGCAAAACGCGUGCUCCGUUGAAUGGAGUUUAGCAUG [C5A U148G] | -3.62 |
| GGAUGUUCUCGGUCUAACAACAAAGUCAAAUCUGCCAGAAAGCUUGAGAGCAUCUUCGGAUGCAGAGGCGGCAGCCAUCGGUGGCGCGAUAGCGCCAACGUUCUCAACUAUGACACGUAAAACGCGUGCUCCGUUGAAUGGAGUUUAUCAUG [C5G A12G A21C A26U C38G U77A C118U] | ≤ -4.2 |
| GGAUAGUCUCGAGCUAACAAAAAAGACAAAUCUGCCACAAAGCUUGAGAGCAACUUCGGAUGCAGAGGCGGCAGCCUUCGGUGGCGCGAUAGCGCCAACGUUCUCAACUAUGACAGGCAAAACGCUUGCUCCGUUGAAUGGAGUUUAUCAUG [C5A U6G U13G U53A C116G G126U] | -3.78 |
